Measurements taken from publication PMC9645763.

Experiments:
[1] = tested on: PRC2-5m SUZ12 S583A (HEK293T) (human); experiment: EMSA; conditions: EMSA: 0.5 nM nucleosome, PRC2-5m 2-fold dilutions from 2 uM, 10 mM Tris 8.0, 50 mM NaCl, 10% glycerol, on ice 30 min; 4% native gel, 1x TGE, SYBR Gold
[2] = target: mononucleosome (Xenopus laevis histone octamer on 147-bp 601 DNA) (Xenopus laevis); experiment: native gel or EMSA; 0.5 nM nucleosomes with PRC2-5m (2-fold serial dilution from 2 μM), 10 mM Tris 8.0, 50 mM NaCl, 10% glycerol, on ice 30 min; 4% native polyacrylamide gel, SYBR Gold

fold reduction of the nucleosome binding affinity against the WT complex [2] [fold]	Substance	binding signal (fold higher Kd than WT) [1]
	601 mononucleosome, 147 bp	2
2	PRC2-5m (EZH2–EED–SUZ12–RBBP4–AEBP2) containing the S583A mutation of SUZ12, expressed in HEK293T cells (from UniProt Q15910 1-746; O75530 1-441; Q15022 1-739; Q09028 1-425; Q6ZN18 1-295) (complex)	
